From patent US20080152587A1 (Amgen, published 2008)
Changes are numbered by the printed parent chain. Values belong to the binder of their own block, whether it stands above or below them.

Assays:
[1] = biological target: T1, human urokinase-type plasminogen activator receptor (uPAR, CD87), cell-bound (human, UniProt Q03405 23-305); test: cell-based or functional assay
[2] = biological target: T1, human urokinase-type plasminogen …; test: cell-based or functional assay; remark: listed apart in the source
[3] = biological target: T2, soluble recombinant human uPAR/His6 (R&D Systems, Cat. # 807-UK-100) (human, UniProt Q03405 23-303); test: low resolution Biacore
T2 construct: range 1-303; Bought protein; also called soluble uPAR; hu-uPAR
Description: (§1) A high-density goat anti-human antibody surface over a CM5 Biacore™ chip was prepared using routine amine coupling. […] Each mAb was captured on a separate flow cell using a 30-second contact time at 10 μL/min followed by a 5-minute wash at a 100 μL/min flow rate for stabilization of the mAb baseline. […] All antigen samples were prepared in the running buffer.

[4] = biological target: T3, mouse uPAR on the surface of NCTC L929 cells (mouse, UniProt P35456 24-298); test: FACS, NCTC L929 mouse cells
T3 construct: whole, on cells; also called cell surface mouse uPAR
T3 sequence (looked up): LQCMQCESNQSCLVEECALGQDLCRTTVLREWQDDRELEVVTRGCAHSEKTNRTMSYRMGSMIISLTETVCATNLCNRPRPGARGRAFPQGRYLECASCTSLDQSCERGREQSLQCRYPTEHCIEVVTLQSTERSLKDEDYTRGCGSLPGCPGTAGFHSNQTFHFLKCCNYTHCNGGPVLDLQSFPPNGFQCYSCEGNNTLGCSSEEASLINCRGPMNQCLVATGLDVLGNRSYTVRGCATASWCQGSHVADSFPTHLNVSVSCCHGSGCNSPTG
Description: (§2) To make the mouse cross-reactivity results conclusive, direct binding of the mAbs to cell-bound mouse uPAR was measured using FACS analysis. The mouse cell line derived from the connective tissue, NCTC L929, was employed for FACS analysis. The harvested cells were resuspended at 50,000 cells/well using FACS buffer into a V-bottom plate which was put on ice. […] After washing, Cy5-labeled goat anti-human IgG Fc at 5 μg/ml and 7AAD at 5 μg/ml was added. The mixtures were incubated for 15 min on ice, washed and resuspended in cold FACS buffer for FACS analysis.

[5] = biological target: T4, murine uPAR (form not stated) (mouse, UniProt P35456 24-297, limits assumed); test: summary column Murine X-reactivity
T4 construct: also called mouse uPAR
T4 sequence (looked up): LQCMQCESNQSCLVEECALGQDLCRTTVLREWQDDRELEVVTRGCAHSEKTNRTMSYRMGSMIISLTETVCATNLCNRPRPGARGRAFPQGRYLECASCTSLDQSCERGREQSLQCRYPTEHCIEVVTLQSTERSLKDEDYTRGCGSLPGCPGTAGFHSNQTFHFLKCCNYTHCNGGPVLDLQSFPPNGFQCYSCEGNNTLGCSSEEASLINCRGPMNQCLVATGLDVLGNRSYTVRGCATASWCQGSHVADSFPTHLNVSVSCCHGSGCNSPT

[6] = biological target: T3, mouse uPAR on the surface of NCTC L929 …; test: FACS, NCTC L929 mouse cells, mAb 6.25 µg/ml
Description: as §2

[7] = biological target: T5, human Ly6e with a myc tag, expressed in HEK293T cells (human, UniProt Q16553 21-101); test: FACS, HEK293T cells expressing Ly6e, supernatant 1:2
T5 construct: whole, on cells; not shown: myc tag fused on the molecule
T5 sequence (looked up): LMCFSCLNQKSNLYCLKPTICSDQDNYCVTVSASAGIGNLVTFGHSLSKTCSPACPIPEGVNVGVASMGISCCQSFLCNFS

[8] = biological target: T1, human urokinase-type plasminogen …; test: FACS competition with FITC-tc-uPA, line material
Excerpt: (§3) Briefly, murine fibroblast L929 cells (ATCC) were transfected to express human uPAR.

[9] = biological target: T2, soluble recombinant human uPAR/His6 …; test: limited antigen ELISA, uPAR coat 20 ng/mL, sample 1:25
Description: (§4) ELISA plates were coated with a lower amount ofuPAR in comparison with the High Antigen Quantitation assay described below (320, 160, 80, 40 and 20 ng/mL). Samples containing one concentration of antibody (Ab) (1:25 dilution) were incubated overnight to allow Ab binding to approach equilibrium.

[10] = biological target: T2, soluble recombinant human uPAR/His6 …; test: limited antigen ELISA, uPAR coat 80 ng/mL, sample 1:25
Description: as §4

[11] = biological target: T1, human urokinase-type plasminogen …; test: FACS, B300.19 cells expressing human uPAR, anti-human gamma Cy5
[12] = biological target: T2, soluble recombinant human uPAR/His6 …; test: low resolution Biacore, mAb captured by goat anti-human, hu-uPAR 312 nM;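 further: surface plasmon resonance on a CM5 chip with goat anti-human antibody surface made by amine coupling, each mAb from supernatant captured per flow cell, kinetics fitted including mass transport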
Description: as §1
A mass transport coefficient was used in fitting the data.

[13] = biological target: T1, human urokinase-type plasminogen …; test: FACS competition, FITC-tc-uPA on L929 cells expressing human uPAR, supernatant 1:2
Excerpt: as §3

[14] = biological target: T1, human urokinase-type plasminogen …; test: FACS, U937 cells, mAb 5 µg/ml on ice, alexa647 goat anti-human F(ab), not stripped
Description: A cell suspension containing 100,000 cells was pipetted into each well of a V-bottom plates in duplicate. Two V-bottom plates were prepared, one to be kept at 37° C. during internalization with antibody complex, and the other to be incubated at 4° C. Each of the eight uPAR mAbs was incubated with U937 cells at 5 μg/ml on ice for 15 min. Incubation on ice was necessary to prevent internalization of the primary mAbs. The cells were then washed with cold FACS buffer. Cells were subsequently incubated on ice in 100 μl of 5 μg/ml alexa647-labelled goat anti-humanF(ab) (Invitrogen catalogue number A21249) in cold FACS buffer for 15 min. This allowed the goat FAB bind to the bound uPAR mAbs without permitting any internalization. After a 15 minute incubation on ice, one plate was kept on ice, while the other plate was incubated at 37° C. for 1 hour.
Following the 1 hr incubation with the mAb-FAB complex, the cells were washed twice with cold 5% FACS buffer, and 200 μl of Tris(2-carboxyethyl)phosphine HCl (TCEP) was added to each well as a stripping agent. The plates were both incubated with TCEP on ice for 1 hour, followed by washing and resuspending with FACS buffer. 4 μl of 7-Amino-Actinomycin D (7AAD) was added to each well, followed by 10 min incubation on ice before FACS analysis was conducted.

[15] = biological target: T6, cynomolgus monkey uPAR, cell-bound (cynomolgus monkey, UniProt Q9GK78 23-305); test: FACS, GeoMean; cynomolgus uPAR expressed on 293T cells; antibody concentration not given
T6 construct: whole, on cells; also called cyno-uPAR
T6 sequence (Q9GK78 23-305): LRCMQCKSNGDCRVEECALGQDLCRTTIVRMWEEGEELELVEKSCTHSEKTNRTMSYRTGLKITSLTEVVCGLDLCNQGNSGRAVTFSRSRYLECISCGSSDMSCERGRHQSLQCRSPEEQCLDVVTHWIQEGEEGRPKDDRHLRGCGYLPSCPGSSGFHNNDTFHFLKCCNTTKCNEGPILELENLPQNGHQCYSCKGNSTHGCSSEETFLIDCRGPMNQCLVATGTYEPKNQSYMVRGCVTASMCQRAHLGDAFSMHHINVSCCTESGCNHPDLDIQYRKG

T2 sequence (Q03405 other isoform, or with tags, fused parts or gaps limits assumed, form in doubt): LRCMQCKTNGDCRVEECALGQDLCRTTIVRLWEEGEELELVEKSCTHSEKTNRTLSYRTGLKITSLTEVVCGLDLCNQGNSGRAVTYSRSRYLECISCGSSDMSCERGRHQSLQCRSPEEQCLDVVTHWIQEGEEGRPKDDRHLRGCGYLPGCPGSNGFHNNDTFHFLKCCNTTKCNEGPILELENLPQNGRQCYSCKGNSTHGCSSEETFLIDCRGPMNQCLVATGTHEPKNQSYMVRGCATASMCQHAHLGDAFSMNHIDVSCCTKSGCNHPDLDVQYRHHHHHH
T1 sequence (Q03405 23-305): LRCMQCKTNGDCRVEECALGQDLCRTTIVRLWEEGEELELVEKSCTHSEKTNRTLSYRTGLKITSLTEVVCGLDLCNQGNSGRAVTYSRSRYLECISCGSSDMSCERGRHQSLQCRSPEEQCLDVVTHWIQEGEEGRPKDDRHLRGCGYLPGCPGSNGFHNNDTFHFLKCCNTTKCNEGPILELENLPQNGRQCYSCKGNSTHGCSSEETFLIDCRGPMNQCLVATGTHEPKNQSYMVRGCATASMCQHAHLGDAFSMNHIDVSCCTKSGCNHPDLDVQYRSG

B1: anti-uPAR monoclonal antibody 4.13.1 (antibody, V domains shown)
VH: EVQLLESGGGLVQPGGSLRLSCAASGFTFSSYAMSWVRQAPGKGLEWVLGISGSGGSTYYADSVKGRFTISRDNSKNTLYLQMNSLRAEDTAVYYCAKDGYGDYVGWYFDLWGRGTLVTVSS
VL: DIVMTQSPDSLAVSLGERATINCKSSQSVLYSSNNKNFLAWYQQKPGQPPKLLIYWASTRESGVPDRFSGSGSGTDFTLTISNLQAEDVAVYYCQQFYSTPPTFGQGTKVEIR
notes: also called 4.13.2
inhibition of plasminogen activation on U937 cells [1]: > 90%
Plasminogen activation inhibition (IC50, ug/ml) [2]: 0.077 µg/mL
Kd [3]: 12.6 nM
binding result [4]: no binding (tested: 6.25 µg/ml)
binding result [5]: no binding
X Geo Mean [6]: 11.2
binding result [7]: no binding (tested: GeoMean ratio 1.95)
Human uPAR/uPA binding inhibition (%, line material) [8]: 78%
LA at 20 ng/ml [9]: 0.09
LA at 80 ng/ml [10]: 0.24
gCy5 Geo Mean Pos Cells [11]: 28.2
Kd [12]: 12.6 nM
koff [12]: 0.0012 s⁻¹
kon [12]: 95000 M⁻¹ s⁻¹
uPA/uPAR binding Inhibition % [13]: 78%
geo mean cold - TCEP [14]: 37.4

B2: anti-uPAR monoclonal antibody 1.113.2 (antibody, V domains shown)
VH: QVQLVESGGGVVQPGRSLRLSCAASGFTFSSYGMHWVRQAPGKGLEWVAVIWYDGSNKYYADSVKGRFTISRDNSKNTLYLQMNSLRAEDTAVYYCARDLAALYYYYGMHVWGQGTTVTVSS
VL: EIVMTQSPATLSVSPGERATLSCRASQSFSSNLAWYQQKPGQAPRLLIYGASTRATGIPARFSGSGSGTEFTLTISSLQSEDFAVYYCQQNNNWPRTFGQGTKVEIK
Plasminogen activation inhibition (IC50, ug/ml) [2]: 0.775 µg/mL
Kd [3]: 4.6 nM
binding result [4]: no binding (tested: 6.25 µg/ml)
binding result [5]: no binding
X Geo Mean [6]: 10.2
binding result [7]: no binding (tested: GeoMean ratio 1.95)
Human uPAR/uPA binding inhibition (%, line material) [8]: 75%
LA at 20 ng/ml [9]: 0.53
LA at 80 ng/ml [10]: 1.8
gCy5 Geo Mean Pos Cells [11]: 511
Kd [12]: 4.6 nM
koff [12]: 0.00013 s⁻¹
kon [12]: 28000 M⁻¹ s⁻¹
uPA/uPAR binding Inhibition % [13]: 75%
binding result [15]: binds

B5: anti-uPAR monoclonal antibody 1.4.2 (antibody, V domains shown)
VH: EVQLVESGGGLVQPGGSLRLSCAASGFTFSSYDMHWVRQATGKGLEWVSAIGTAGDTYYPGSVKGRFTISRENAKNSLYLQMNSLRAGDTAVYYCAREGDYSNYFTMVRGVTYGMDVWGQGTTVTVSS
VL: DIQLTQSPSSLCASVGDRITITCRASQGISKYLAWFQQKPGKAPKSLIYGASSLQSGVPAKFSGSGSGTDFTLTISSLQPEDFATYYCQQYNSYPLTFGGGTKVEIK
Plasminogen activation inhibition (IC50, ug/ml) [2]: 0.075 µg/mL
Kd [3]: 8.7 nM
binding result [4]: no binding (tested: 6.25 µg/ml)
binding result [5]: no binding
X Geo Mean [6]: 12.4
binding result [7]: no binding (tested: GeoMean ratio 1.95)
Human uPAR/uPA binding inhibition (%, line material) [8]: 69%
LA at 20 ng/ml [9]: 0.16
LA at 80 ng/ml [10]: 0.66
gCy5 Geo Mean Pos Cells [11]: 419
Kd [12]: 8.7 nM
koff [12]: 0.00096 s⁻¹
kon [12]: 110000 M⁻¹ s⁻¹
uPA/uPAR binding Inhibition % [13]: 69%
binding result [15]: binds

These reach a lower Kd [3]. Values come first.

Plasminogen activation inhibition (IC50, ug/ml) [2]: 0.181 µg/mL
Kd [3]: 3.9 nM
binding result [4]: no binding (tested: 6.25 µg/ml)
binding result [5]: no binding
X Geo Mean [6]: 9.59
binding result [7]: no binding (tested: GeoMean ratio 1.95)
Human uPAR/uPA binding inhibition (%, line material) [8]: 74%
LA at 20 ng/ml [9]: 0.27
LA at 80 ng/ml [10]: 1.48
gCy5 Geo Mean Pos Cells [11]: 422
Kd [12]: 3.9 nM
koff [12]: 0.00013 s⁻¹
kon [12]: 33000 M⁻¹ s⁻¹
uPA/uPAR binding Inhibition % [13]: 74%
binding result [15]: binds
B3: anti-uPAR monoclonal antibody 1.41.1 (antibody, V domains shown)
VH: QVQLVESGGGVVQPGRSLRLSCAAPGFTFSSYGMHWVRQAPGKGLEWVAVIWYDGSQKYYADSVKGRFTISRDNSKNTLYLQMNSLRAEDTAVYYCARGMTYYYYYGMDVWGQGTTVTVSS
VL: B2 VL with T10I, F29V, N32K, A34D, N91Y

Plasminogen activation inhibition (IC50, ug/ml) [2]: 0.328 µg/mL
Kd [3]: 3.1 nM
binding result [5]: no binding
binding result [7]: no binding (tested: GeoMean ratio 1.95)
Human uPAR/uPA binding inhibition (%, line material) [8]: 70%
LA at 20 ng/ml [9]: 0.67
LA at 80 ng/ml [10]: 2.57
gCy5 Geo Mean Pos Cells [11]: 451
Kd [12]: 3.1 nM
koff [12]: 6.8e-05 s⁻¹
kon [12]: 22000 M⁻¹ s⁻¹
uPA/uPAR binding Inhibition % [13]: 70%
B4: anti-uPAR monoclonal antibody 3.8.3 (antibody, V domains shown)
VH: EVQLVESGGGLVQPGGSLRLSCAASGFTFSSYWMSWVRQAPGKGLEWVANIKQHGSEKYYVDSVKGRFTISRDNAKNSLYLQMNSLRAEDTAVYYCAREEAYYYDNSGYYWYFDLWARGTLVTVSS
VL: DIQMTQSPSSVSASIGDRVTITCRASQGISSWLAWYQQKPGKTPKLLIYAASSLQSGVPSRFSGSGSGTDFTLTISSLQPEDFATYYCQQADSFPWTFGQGTKVEIK

Plasminogen activation inhibition (IC50, ug/ml) [2]: 0.119 µg/mL
Kd [3]: 2.7 nM
binding result [4]: no binding (tested: 6.25 µg/ml)
binding result [5]: no binding
X Geo Mean [6]: 9.7
binding result [7]: no binding (tested: GeoMean ratio 1.95)
Human uPAR/uPA binding inhibition (%, line material) [8]: 69%
LA at 20 ng/ml [9]: 0.27
LA at 80 ng/ml [10]: 1.99
gCy5 Geo Mean Pos Cells [11]: 559
Kd [12]: 2.7 nM
koff [12]: 0.00025 s⁻¹
kon [12]: 94000 M⁻¹ s⁻¹
uPA/uPAR binding Inhibition % [13]: 69%
binding result [15]: binds
B6: anti-uPAR monoclonal antibody 1.61.1 (antibody, V domains shown)
VH: B5 VH with M107R
VL: B5 VL with L4M, C12S, I19V, A60S

inhibition of plasminogen activation on U937 cells [1]: > 90%
Plasminogen activation inhibition (IC50, ug/ml) [2]: 0.104 µg/mL
Kd [3]: 2.2 nM
binding result [4]: no binding (tested: 6.25 µg/ml)
binding result [5]: no binding
X Geo Mean [6]: 8.92
binding result [7]: binds
Human uPAR/uPA binding inhibition (%, line material) [8]: 67%
LA at 20 ng/ml [9]: 0.21
LA at 80 ng/ml [10]: 0.64
gCy5 Geo Mean Pos Cells [11]: 402
Kd [12]: 2.2 nM
koff [12]: 0.00026 s⁻¹
kon [12]: 120000 M⁻¹ s⁻¹
uPA/uPAR binding Inhibition % [13]: 67%
geo mean cold - TCEP [14]: 42.1
binding result [15]: binds
B7: anti-uPAR monoclonal antibody 4.50.1 (antibody, V domains shown)
VH: QVQLVESGGGVVQPGRSLRLSCAASGFTFSSYGMHWVRQAPGKGLEWVAVIWYDGSNKDYADSVKGRFTISRDNSKNTLYLQMNSLRAEDTAVYYCARDMIVVVITYAFDIWGQGTMVTVSS
VL: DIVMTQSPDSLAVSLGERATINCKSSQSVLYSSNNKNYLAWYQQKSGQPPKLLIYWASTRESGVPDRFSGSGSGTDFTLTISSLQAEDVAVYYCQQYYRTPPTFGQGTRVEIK
notes: also called 4.50.2

Plasminogen activation inhibition (IC50, ug/ml) [2]: 0.061 µg/mL
Kd [3]: 2.3 nM
binding result [4]: no binding (tested: 6.25 µg/ml)
binding result [5]: no binding
X Geo Mean [6]: 9.89
binding result [7]: no binding (tested: GeoMean ratio 1.95)
Human uPAR/uPA binding inhibition (%, line material) [8]: 78%
LA at 20 ng/ml [9]: 0.27
LA at 80 ng/ml [10]: 2.15
gCy5 Geo Mean Pos Cells [11]: 521
Kd [12]: 2.3 nM
koff [12]: 0.00017 s⁻¹
kon [12]: 75000 M⁻¹ s⁻¹
uPA/uPAR binding Inhibition % [13]: 78%
binding result [15]: binds
B8: anti-uPAR monoclonal antibody 1.100.1 (antibody, V domains shown)
VH: EVQLVESGGGLLQPGGSLRLSCAASGFTVRNNYMNWVRQAPGKGLEWVSVIYTGGSTYYADSVKGRFTISRDNSKNTLYLQMNSLRAEDTAVYYCAREGKLAGMDVWGQGTTVTVSS
VL: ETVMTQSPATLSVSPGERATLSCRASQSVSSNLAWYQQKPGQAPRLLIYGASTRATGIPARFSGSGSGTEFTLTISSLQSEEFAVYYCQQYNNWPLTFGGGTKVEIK
